# B1: TGFβi: human recombinant protein transforming growth factor beta-induced, used at 3 μg/mL (protein)
# chain: GPAKSPYQLVLQHSRLRGRQHGPNVCAVQKVIGTNRKYFTNCKQWYQRKICGKSTVISYECCPGYEKVPGEKGCPAALPLSNLYETLGVVGSTTTQLYTDRTEKLRPEMEGPGSFTIFAPSNEAWASLPAEVLDSLVSNVNIELLNALRYHMVGRRVLTDELKHGMTLTSMYQNSNIQIHHYPNGIVTVNCARLLKADHHATNGVVHLIDKVISTITNNIQQIIEIEDTFETLRAAVAASGLNTMLEGNGQYTLLAPTNEAFEKIPSETLNRILGDPEALRDLLNNHILKSAMCAEAIVAGLSVETLEGTTLEVGCSGDMLTINGKAIISNKDILATNGVIHYIDELLIPDSAKTLFELAAESDVSTAIDLFRQAGLGNHLSGSERLTLLAPLNSVFKDGTPPIDAHTRNLLRNHIIKDQLASKYLYHGQTLETLGGKKLRVFVYRNSLCIENSCIAAHDKRGRYGTLFTMDRVLTPPMGTVMDVLKGDNRFSMLVAAIQSAGLTETLNREGVYTVFAPTNEAFRALPPRERSRLLGDAKELANILKYHIGDEILVSGGIGALVRLKSLQGDKLEVSLKNNVVSVNKEPVAEPDIMATNGVVHVITNVLQPPANRPQERGDELADSALEIFKQASAFSRASQRSVRLAPVYQKLLERMKH
# What was measured:
# [1] = tested on: SaOS2 cells; assay: Inflammatory stimuli (IL1β, LPS) on SaOS2 differentiated with ACM, RT-PCR; format: cell-based, Human
# Method: To determine the effect of an external inflammatory factor on the differentiation process of SaOS2 stimulated with ACM, SaOS2 cells were seeded and stimulated with the ACM in the presence and absence of 0.1 ng/ml of IL1 and 100 ng/mL of lipopolysaccharide (LPS). To do this, once the SaOS2 completed the 3-day differentiation with the ACM, these cells were treated with the inflammatory stimuli and were differentiated for a further 48h.
# (§1) RNA was extracted using TriReagent® and the RNA extraction Kit E.Z.N.A. Total RNA Kit I® (Omega Bio-Tek Inc., Norcross, GA, USA) following the manufacturer's instructions. The gene expression of bone related markers, inflammatory and adipogenic markers were measured using iTaq Universal SYBR Green Supermix (BioRad Laboratories, Hercules, CA, USA). Relative quantitation was performed using the ΔΔCt Comparative Method. Results are expressed as 2^−ΔΔCt versus unstimulated control or DM.
# [2] = tested on: SaOS2 cells; assay: SaOS2 differentiation into osteoblasts, gene expression by RT-PCR; format: cell-based, Human; conditions: SaOS2 differentiated into osteoblasts three days, presence or absence of stimulus (ACM; TGFβi 3 μg/mL)
# Method: (§2) SaOS2 were differentiated for 3 days, C3H10T1/2 for 7 days, and ATDC5 for 14 days. In order to induce cell differentiation, the media were changed three times a week in SaOS2 and ATDC5 cells, starting the process 24 h post-culture. In these cells, the same medium was used in all the changes made. Regarding the C3H10T1/2, two media were used to differentiate them into adipocytes: the induction medium which was changed after 6 h post-culture, and the maintenance medium which replaced the induction medium after 4 days. after culture. All cells were seeded in 24-well plates (Thermo Fisher Scientific, Waltham, MA, USA).
# After 24 h SaOS2 post-culture, the medium was changed to ACM, and they were differentiated for 3 days.
# (§3) SaOS2, C3H10T1/2, and ATDC5 cells were differentiated in the presence or absence of 3 μg/mL of human recombinant protein transforming growth factor beta-induced (TGFβi), similar concentration to TGFβi-blood levels. It should be noted that this protein was added newly in every medium change corresponding to the differentiation of each cell line.
# as §1
# [3] = tested on: C3H10T1/2 cells; assay: C3H10T1/2 differentiation into adipocytes, gene expression by RT-PCR; format: cell-based; conditions: C3H10T1/2 differentiated into adipocytes seven days
# Method: as §2
# Regarding the C3H10T1/2, due to the difference in the composition of their differentiation media and that of the SaOS2, we proceeded with the concentration and purification of the 2 mL DM and ACM proteins, using the filter units 3 kDa Amicon® Ultra-0.5 mL Centrifugal Filters Ultracel 3K (Millipore, Burlington, Massachusetts, USA) following the supplier's instructions. Once the process was finished, the pellets were resuspended in the differentiation medium corresponding to the cell line, filtered through a 0.2 μm filter (Thermo Fisher Scientific, Wlatham, MA, USA), and cells were differentiated for 7 days as was previously described. For cell differentiation stimulated with the NCM, NCM was concentrated using Amicon® Ultra-0.5 mL Centrifugal Filters Ultracel 3K 3 kDa centrifugal filter units, according to the supplier's specifications. Then, they were resuspended with the C3H10T1/2 differentiation medium and filtered through a 0.2 μm filter. Finally, C3H10T1/2 cells were differentiated into adipocytes in the presence and absence of NCM for 7 days, as previously described.
# as §3, §1
# [4] = tested on: C3H10T1/2 cells; assay: RNA quantification and cell counting; format: cell-based; conditions: C3H10T1/2 differentiated to adipocytes seven days, TGFβi 3 μg/mL
# From the text: The RNA of the differentiated C3H10T1/2 was quantified using a NanoDrop One® spectrophotometer (Thermo Fisher Scientific, Wlatham, MA, USA).
# Moreover, microscopic photos of the different conditions were taken. Subsequently, the photograph was divided into 3 rectangles of equal size and positioned in the same place in the images. The live cells were counted, and the number of cells was compared with the rest of the samples.
# [5] = tested on: ATDC5 cells; assay: ATDC5 differentiation into chondrocytes, gene expression by RT-PCR; format: cell-based; conditions: TGFβi 3 μg/mL
# Method: as §2, §3, §1
# [6] = SaOS2 differentiated three days with ACM, then IL1β 0.1 ng/mL for 48h
# [7] = presence or absence of stimulus (ACM; NCM; TGFβi 3 μg/mL)
# [8] = ATDC5 differentiated into chondrocytes three, seven, fourteen days
molecule,measurement,setting,value
"IL1β: inflammatory stimulus, 0.1 ng/ml",BMP2 gene expression induced by ACM,[1]; [6],increased
same,CCL2 gene expression,[1]; [6],increased
same,IL6 gene expression,[1]; [6],increased
same,LIF gene expression induced by ACM,[1]; [6],increased
same,SPP1 gene expression,[1]; [6],did not modify
same,VCAM gene expression,[1]; [6],increased
lipopolysaccharide [LPS],inflammatory profile or bone metabolism,"[1]; SaOS2 differentiated three days with or without ACM, then LPS 100 ng/ml for 48h",did not alter
B1,AXIN2 gene expression,[2],did not modify
same,BMP2 gene expression,[2],increased
same,BMP4 gene expression,[2],did not modify
same,CCL2 gene expression,[2],increased
same,CD44 gene expression,[2],did not modify
same,GPNMB gene expression,[2],did not modify
same,LIF gene expression,[2],did not modify
same,OPG gene expression,[2],did not modify
same,PDGFRβ gene expression,[2],did not modify
same,PDGFβ gene expression,[2],did not modify
same,RANKL gene expression,[2],did not modify
same,RANKL/OPG ratio,[2],did not modify
same,RUNX2 gene expression,[2],did not modify
same,SPP1 gene expression,[2],increased
same,TGFβi gene expression,[2],increased
same,VCAM gene expression,[2],increased
same,BMP2 gene expression,[2]; listed as TGFBi recombinant,partial recapitulation
same,CCL2 gene expression,[2]; listed as TGFBi recombinant,partial recapitulation
same,SPP1 gene expression,[2]; listed as TGFBi recombinant,partial recapitulation
same,VCAM gene expression,[2]; listed as TGFBi recombinant,partial recapitulation
same,ADIPOQ gene expression,[3]; [7],reduced
same,AXIN2 gene expression,[3]; [7],no modifications
same,CCL2 gene expression,[3]; [7],no modifications
same,CD44 gene expression,[3]; [7],increase
same,FABP4 gene expression,[3]; [7],reduced
same,GPNMB gene expression,[3]; [7],no modifications
same,IL6 gene expression,[3]; [7],no modifications
same,PLIN2 gene expression,[3]; [7],reduced
same,PPARG gene expression,[3]; [7],reduction was statistically significant
same,RUNX2 gene expression,[3]; [7],increase
same,SPP1 gene expression,[3]; [7],increase
same,VCAM gene expression,[3]; [7],increase
same,PPARG gene expression,"[3]; presence or absence of stimulus (ACM; NCM; TGFβi 3 μg/mL), listed as TGFBi",significantly decreased
same,TGFβi gene expression,[3]; presence or absence of stimulus (ACM; TGFβi 3 μg/mL),increase
same,cell proliferation: amount of RNA,[4],increase
same,cell proliferation: number of cells,[4],increase
same,cell proliferation: amount of RNA,[4]; listed as TGFBi,differences on cell proliferation were observed
same,cell proliferation: number of cells,[4]; listed as TGFBi,differences on cell proliferation were observed
same,COL2A1 gene expression,[5]; [8],decrease
same,COLX gene expression,[5]; [8],decrease
same,SOX9 gene expression,[5]; [8],decrease
same,SPP1 expression,[5]; early stages of ATDC5 differentiation,increased

# Source: US20260227386A1, “DIAGNOSIS AND TREATMENT OF NEUROGENIC HETEROTOPIC OSSIFICATION” (SERVIZO GALEGO DE SAÚDE, priority 2023, published 2026)
